# Test results as given in US20090325887A1.
# Target: Cav3.1 channel (α3.1 subunit)
# Test: cell-based or functional assay
binder,measurement,value
VGLFFALA [γ1 TM1a T12GI16A peptide],inhibition of Cav3.1 current at 30 µM peptide,29.4%
LLILAVGV [γ6 TM1a SCR peptide],inhibition of Cav3.1 current at 30 µM peptide,0.5%
VTLFFILA [γ1 TM1a peptide],inhibition of Cav3.1 current at 30 µM peptide,2.4%
LGLLVAIV [γ6 TM1a peptide],amplitude of the fast component (Afast) of the unbinding process after 300 µM peptide (bi-exponential fit of current recovery) (normalized fraction),-0.37
same,"apparent affinity (Kapp), overall",50 µM
same,dissociation rate estimated from the time constant of Cav3.1 current recovery,0.167 s⁻¹
same,fast time constant for binding (fit of current inhibition),< 9 s
same,fast time constant for unbinding (fit of current recovery),< 9 s
same,fold increase in affinity between -130 mV and -80 mV holding potential,3 fold
same,"inhibition of Cav3.1 current at 30 µM peptide (whole-cell patch clamp, HEK/Cav3.1)",45.3%
same,"inhibition of Cav3.1 current at 100 µM peptide, -100 mV",60%
same,inhibition of Cav3.1 current at 300 µM peptide,79.3%
same,reversible part of the Cav3.1 current inhibition at 30 µM peptide,73%
same,time constant of the small slower component of the binding and unbinding processes,> 30 s
